Usually stoichiometry N stands for the number of molecules, sites or subunits per partner or assembly.

B1: fluorophosphonate-binding hydrolase F (FphF), apo form (enzyme, Staphylococcus aureus, UniProt Q2FUY3 2-253, looked up)
chain: AYISLNYHSPTIGMHQNLTVILPEDQSFFNSDTTVKPLKTLMLLHGLSSDETTYMRYTSIERYANEHKLAVIMPNVDHSAYANMAYGHSYYDYILEVYDYVHQIFPLSKKRDDNFIAGHSMGGYGTIKFALTQGDKFAKAVPLSAVFEAQNLMDLEWNDFSKEAIIGNLSSVKGTEHDPYYLLDKAVAEDKQIPKLLIMCGKQDFLYQDNLDFIDYLSRINVPYQFEDGPGDHDYAYWDQAIKRAITWMVND
B2: FphF with the 2-phenylpiperidine-1-carbonyl moiety of KT129 or KT130 covalently attached to Ser121 (enzyme, Staphylococcus aureus, UniProt Q2FUY3 2-253, looked up)
chain: B1 chain
modifications: 2-phenylpiperidine-1-carbonyl moiety covalently attached to the terminal side chain oxygen atom of Ser121
B3: FphF with the heptyl acyl moiety of 4-MU heptanoate covalently linked to Ser121 (enzyme, Staphylococcus aureus, UniProt Q2FUY3 2-253, looked up)
chain: B1 chain
modifications: heptyl acyl moiety covalently linked to Ser121

This series deals with the molecule itself. Put plainly: crystal structure.
In the case of B1, the “stoichiometry N” value stood at 4.

As for B2, the “stoichiometry N” value stood at 4.

Regarding B3, the “stoichiometry N” value was found to be 4.

These data come from paper PMC12914646 (ACS infectious diseases, 2020).
